Measurements published in paper PMC10741561.

Legend:
[1] = biological target: Phos-Sx4-GST (C-terminally GST-tagged Sx4 cytosolic domain harbouring two mutations Y115E and Y251E) (UniProt P70452); experiment: ITC; MicroCal VP-ITC; syntaxins (WT-Sx4 298 µM, Phos-Sx4 308.25 µM) titrated with SNAP23 (64 µM); nonlinear least squares fit
[2] = biological target: WT-Sx4-GST (C-terminally GST-tagged Syntaxin 4 cytosolic domain) (UniProt P70452); experiment: as above
[3] = biological target: m4 + m5 (ternary SNARE complex with His-SNAP23 and GST-VAMP2); experiment: in vitro SNARE complex assembly assay (SDS-PAGE, anti-Sx4 immunoblot, ImageJ quantification); conditions: 5 µM Sx4-GST variant with equimolar GST-VAMP2 and His-SNAP23, 4 °C, 20 min; parent: est. 1.0; read off a plot

Kd [1] [µM]	Kd [2] [µM]	ratio to parent [3]	Substance
1.22	5.6		His-SNAP23 (N-terminally His-tagged SNAP23) (from UniProt O09044 1-210) (natural protein)
		1.5	WT-Sx4-GST (C-terminally GST-tagged Syntaxin 4 cytosolic domain) (from UniProt P70452) L173A; E174A
